Blank lines part the entries; values can stand above or below the substance they belong to.
Key:
bevacizumab [1] = assay: Bevacizumab PK ELISA (anti-idiotype capture) of bevacizumab 50 ug/mL pre-bound with ADA; bevacizumab:ADA 100:1
bevacizumab [2] = assay: Bevacizumab PK ELISA (anti-idiotype capture) of bevacizumab 0.5 ug/mL pre-bound with ADA; bevacizumab:ADA 1:10
bevacizumab [3] = assay: Bevacizumab PK ELISA (anti-idiotype capture) of bevacizumab 0.5 ug/mL pre-bound with ADA; bevacizumab:ADA 1:100
bevacizumab [4] = assay: Bevacizumab PK ELISA (anti-idiotype capture) of bevacizumab 0.5 ug/mL pre-bound with ADA; bevacizumab:ADA 1:50
bevacizumab [5] = assay: Bevacizumab PK ELISA (anti-idiotype capture) of bevacizumab 0.5 ug/mL pre-bound with ADA; bevacizumab:ADA 1:2
bevacizumab [6] = assay: cell-based or functional assay
bevacizumab [7] = assay: Bevacizumab PK ELISA (anti-idiotype capture) of bevacizumab 50 ug/mL pre-bound with ADA; bevacizumab:ADA 10:1
bevacizumab [8] = assay: Bevacizumab PK ELISA (anti-idiotype capture) of bevacizumab 50 ug/mL pre-bound with ADA; bevacizumab:ADA 5:1
bevacizumab [9] = assay: Bevacizumab PK ELISA (anti-idiotype capture) of bevacizumab 0.5 ug/mL pre-bound with ADA; bevacizumab:ADA 1:5
bevacizumab [10] = assay: Bevacizumab PK ELISA (anti-idiotype capture) of bevacizumab 50 ug/mL pre-bound with ADA; bevacizumab:ADA 1:1
bevacizumab [11] = assay: Bevacizumab PK ELISA (anti-idiotype capture) of bevacizumab 0.5 ug/mL pre-bound with ADA; bevacizumab:ADA 5:1
bevacizumab [12] = assay: Bevacizumab PK ELISA (anti-idiotype capture) of bevacizumab 0.5 ug/mL pre-bound with ADA; bevacizumab:ADA 1:1
bevacizumab [13] = assay: Bevacizumab PK ELISA (anti-idiotype capture) of bevacizumab 0.5 ug/mL pre-bound with ADA; bevacizumab:ADA 10:1
trastuzumab [14] = assay: ELISA Kit A (anti-idiotype capture) of trastuzumab 0.5 ug/mL pre-bound with ADA; trastuzumab:ADA 1:100
trastuzumab [15] = assay: method not stated; affinity listed for the purchased ADA
trastuzumab [16] = assay: ELISA Kit A (anti-idiotype capture) of trastuzumab 50 ug/mL pre-bound with ADA; trastuzumab:ADA 10:1
trastuzumab [17] = assay: ELISA Kit A (anti-idiotype capture) of trastuzumab 0.5 ug/mL pre-bound with ADA; trastuzumab:ADA 1:2
trastuzumab [18] = assay: ELISA Kit B (HER2 capture, anti-human IgG Fc detection) of trastuzumab 0.5 ug/mL pre-bound with ADA; trastuzumab:ADA 10:1
trastuzumab [19] = assay: ELISA Kit A (anti-idiotype capture) of trastuzumab 0.5 ug/mL pre-bound with ADA; trastuzumab:ADA 5:1
trastuzumab [20] = assay: ELISA Kit A (anti-idiotype capture) of trastuzumab 0.5 ug/mL pre-bound with ADA; trastuzumab:ADA 1:1
trastuzumab [21] = assay: ELISA Kit A (anti-idiotype capture) of trastuzumab 0.5 ug/mL pre-bound with ADA; trastuzumab:ADA 1:5
trastuzumab [22] = assay: ELISA Kit A (anti-idiotype capture) of trastuzumab 0.5 ug/mL pre-bound with ADA; trastuzumab:ADA 1:10
trastuzumab [23] = assay: cell-based or functional assay
trastuzumab [24] = assay: ELISA Kit A (anti-idiotype capture) of trastuzumab 50 ug/mL pre-bound with ADA; trastuzumab:ADA 1:1
trastuzumab [25] = assay: ELISA Kit A (anti-idiotype capture) of trastuzumab 0.5 ug/mL pre-bound with ADA; trastuzumab:ADA 10:1
trastuzumab [26] = assay: ELISA Kit A (anti-idiotype capture) of trastuzumab 0.5 ug/mL pre-bound with ADA; trastuzumab:ADA 1:50
trastuzumab [27] = assay: ELISA Kit B (HER2 capture, anti-human IgG Fc detection) of trastuzumab 0.5 ug/mL pre-bound with ADA; trastuzumab:ADA 1:1
trastuzumab [28] = assay: ELISA Kit B (HER2 capture, anti-human IgG Fc detection) of trastuzumab 0.5 ug/mL pre-bound with ADA; trastuzumab:ADA 1:100
trastuzumab [29] = assay: ELISA Kit A (anti-idiotype capture) of trastuzumab 50 ug/mL pre-bound with ADA; trastuzumab:ADA 5:1
trastuzumab [30] = assay: ELISA Kit B (HER2 capture, anti-human IgG Fc detection) of trastuzumab 0.5 ug/mL pre-bound with ADA; trastuzumab:ADA 1:10
trastuzumab [31] = assay: ELISA Kit A (anti-idiotype capture) of trastuzumab 50 ug/mL pre-bound with ADA; trastuzumab:ADA 100:1

Accuracy (%) ELISA (bevacizumab [1]): 102%
Accuracy (%) ELISA (bevacizumab [2]): 2.4%
Accuracy (%) ELISA (bevacizumab [3]): 0%
Accuracy (%) ELISA (bevacizumab [4]): 0.1%
Accuracy (%) ELISA (bevacizumab [5]): 3.2%
Accuracy (%) nSMOL; bevacizumab 0.5 ug/mL; bevacizumab:ADA 1:1 (bevacizumab [6]): 98.2%
Accuracy (%) nSMOL; bevacizumab 0.5 ug/mL; bevacizumab:ADA 1:2 (bevacizumab [6]): 110%
Accuracy (%) nSMOL; bevacizumab 0.5 ug/mL; bevacizumab:ADA 1:5 (bevacizumab [6]): 111%
Accuracy (%) nSMOL; bevacizumab 0.5 ug/mL; bevacizumab:ADA 1:10 (bevacizumab [6]): 110%
Accuracy (%) nSMOL; bevacizumab 0.5 ug/mL; bevacizumab:ADA 1:50 (bevacizumab [6]): 110%
Accuracy (%) nSMOL; bevacizumab 0.5 ug/mL; bevacizumab:ADA 1:100 (bevacizumab [6]): 104%
Accuracy (%) nSMOL; bevacizumab 0.5 ug/mL; bevacizumab:ADA 5:1 (bevacizumab [6]): 98%
Accuracy (%) nSMOL; bevacizumab 0.5 ug/mL; bevacizumab:ADA 10:1 (bevacizumab [6]): 91.3%
Accuracy (%) nSMOL; bevacizumab 50 ug/mL; bevacizumab:ADA 1:1 (bevacizumab [6]): 102%
Accuracy (%) nSMOL; bevacizumab 50 ug/mL; bevacizumab:ADA 5:1 (bevacizumab [6]): 97.3%
Accuracy (%) nSMOL; bevacizumab 50 ug/mL; bevacizumab:ADA 10:1 (bevacizumab [6]): 100%
Accuracy (%) nSMOL; bevacizumab 50 ug/mL; bevacizumab:ADA 100:1 (bevacizumab [6]): 101%
Accuracy (%) nSMOL; bevacizumab first immobilized on Protein A; bevacizumab:ADA 1:1 (bevacizumab [6]): 106%
Accuracy (%) nSMOL; bevacizumab first immobilized on Protein A; bevacizumab:ADA 5:1 (bevacizumab [6]): 106%
Accuracy (%) nSMOL; bevacizumab first immobilized on Protein A; bevacizumab:ADA 10:1 (bevacizumab [6]): 104%
Accuracy (%) nSMOL; bevacizumab first immobilized on Protein A; bevacizumab:ADA 100:1 (bevacizumab [6]): 109%
Accuracy (%) ELISA (bevacizumab [7]): 68.5%
Accuracy (%) ELISA (bevacizumab [8]): 65.5%
Accuracy (%) ELISA (bevacizumab [9]): 2.3%
Accuracy (%) ELISA (bevacizumab [10]): 5.72%
Accuracy (%) ELISA (bevacizumab [11]): 14.2%
Accuracy (%) ELISA (bevacizumab [12]): 6.9%
Accuracy (%) ELISA (bevacizumab [13]): 44.2%
Substance: MAB11128 (clone2C8) (antibody)

Accuracy (%) ELISA (trastuzumab [14]): 72.2%
Kd (trastuzumab [15]): 20 pM
Accuracy (%) ELISA (trastuzumab [16]): 84.4%
Accuracy (%) ELISA (trastuzumab [17]): 82.1%
Accuracy (%) Kit B (trastuzumab [18]): 95.5%
Accuracy (%) ELISA (trastuzumab [19]): 102%
Accuracy (%) ELISA (trastuzumab [20]): 84.1%
Accuracy (%) ELISA (trastuzumab [21]): 67.7%
Accuracy (%) ELISA (trastuzumab [22]): 62.2%
Accuracy (%) nSMOL; trastuzumab 0.5 ug/mL; trastuzumab:ADA 1:1 (trastuzumab [23]): 106%
Accuracy (%) nSMOL; trastuzumab 0.5 ug/mL; trastuzumab:ADA 1:2 (trastuzumab [23]): 102%
Accuracy (%) nSMOL; trastuzumab 0.5 ug/mL; trastuzumab:ADA 1:5 (trastuzumab [23]): 93%
Accuracy (%) nSMOL; trastuzumab 0.5 ug/mL; trastuzumab:ADA 1:10 (trastuzumab [23]): 107%
Accuracy (%) nSMOL; trastuzumab 0.5 ug/mL; trastuzumab:ADA 1:50 (trastuzumab [23]): 86%
Accuracy (%) nSMOL; trastuzumab 0.5 ug/mL; trastuzumab:ADA 1:100 (trastuzumab [23]): 84.8%
Accuracy (%) nSMOL; trastuzumab 0.5 ug/mL; trastuzumab:ADA 5:1 (trastuzumab [23]): 113%
Accuracy (%) nSMOL; trastuzumab 0.5 ug/mL; trastuzumab:ADA 10:1 (trastuzumab [23]): 109%
Accuracy (%) nSMOL; trastuzumab 50 ug/mL; trastuzumab:ADA 1:1 (trastuzumab [23]): 92.9%
Accuracy (%) nSMOL; trastuzumab 50 ug/mL; trastuzumab:ADA 5:1 (trastuzumab [23]): 92.8%
Accuracy (%) nSMOL; trastuzumab 50 ug/mL; trastuzumab:ADA 10:1 (trastuzumab [23]): 102%
Accuracy (%) nSMOL; trastuzumab 50 ug/mL; trastuzumab:ADA 100:1 (trastuzumab [23]): 89.5%
Accuracy (%) nSMOL; trastuzumab first immobilized on Protein A; trastuzumab:ADA 1:1 (trastuzumab [23]): 94.5%
Accuracy (%) nSMOL; trastuzumab first immobilized on Protein A; trastuzumab:ADA 5:1 (trastuzumab [23]): 94.3%
Accuracy (%) nSMOL; trastuzumab first immobilized on Protein A; trastuzumab:ADA 10:1 (trastuzumab [23]): 101%
Accuracy (%) nSMOL; trastuzumab first immobilized on Protein A; trastuzumab:ADA 100:1 (trastuzumab [23]): 107%
Accuracy (%) ELISA (trastuzumab [24]): 81.4%
Accuracy (%) ELISA (trastuzumab [25]): 95.2%
Accuracy (%) ELISA (trastuzumab [26]): 64.5%
Accuracy (%) Kit B (trastuzumab [27]): 42.4%
Accuracy (%) Kit B (trastuzumab [28]): 3.32%
Accuracy (%) ELISA (trastuzumab [29]): 66.8%
Accuracy (%) Kit B (trastuzumab [30]): 6.4%
Accuracy (%) ELISA (trastuzumab [31]): 84.9%
Substance: HCA168 (Fab)
